The values below come from patent US20240158769A1 (RHEINISCH WESTF LISCHE TECHNISCHE HOCHSCHULE RWTH AACHEN, published 2024).

This series deals with the molecule itself. The series can be described thus: size exclusion chromatography against protein standards (peaks at 80 kDa and 50 kDa; data not shown).

B1: Phytase chimera PTRec 77 (enzyme)
chain: SDTAPAGFQLERVVILSRHGVRAPTKMTQTMRDVTPHQWPEWPVKLGYITPRGEHLISLMGGFYRERFQQQGLLPKDNCPTPDAVYVWADVDQRTRLTGQAFLDGIAPGCGLKVHYQADLEKVDPLFHPVEAGVCQLDSTQTHRAIEAQLGAPLSELSQRYAKPFAQMSEILNFTASPYCKSLQQQGKSCDFATFAANEVKVNQQGTKVSLSGPLALSSTLGEVFLLQEAQGMPQVAWGRITGEKEWRDLLSLHNAQFDLLQRTPYLAKHNGTPLLQTIAHALGSNITSRPLPDISPDNKILFIAGHDTNIANISGMLGMTWTLPGQPDNTPPGGALVFERWVDNAGKPYVSVNMVYQTLAQLHDQAPLTLQHPAGSVRLNIPGCSDQTPDGYCPLSTFSRLVSHSVEPACQLP
modifications: N-linked glycans, heterogeneous (hypermannosylation), from secretion by Pichia pastoris; sites not stated
notes: Recombinant chimera of phytase fragments from Hafnia alvei, Yersinia mollaretii and Citrobacter braakii; It was secreted by P. pastoris and purified; also called DJ 11
On to B1, for which the binding result is listed as “no binding”.
